Data: paper PMC6463701

Key:
Cys820 = Cys820 (UniProt position 843, PTSHTCFNVLL); assay: chemical modification (stopped-flow kinetics, UV-vis); settings: 10 °C; 100 mM NaCl; 20 mM sodium acetate, 20 mM sodium phosphate, 20 mM Tris or 20 mM CAPSO (depending on pH); 1 mM EDTA; isolated C-lobe, free (no ubiquitin), reduced thiol, folded
[1] = target: fluorophore-labeled ubiquitin G76C (BODIPY TMR C5-maleimide); assay: fluorescence polarisation; 50 nM BODIPY TMR-labelled ubiquitin G76C, E6AP construct titrated (C-lobe 0-500 μM); room temperature; 20 mM HEPES pH 7.2, 200 mM NaCl, 1 mM TCEP, 0.01% Triton X-100; single-site binding model; apparent KD

Chain of E6AP C-lobe (residues 741-852) (Q05086 764-875): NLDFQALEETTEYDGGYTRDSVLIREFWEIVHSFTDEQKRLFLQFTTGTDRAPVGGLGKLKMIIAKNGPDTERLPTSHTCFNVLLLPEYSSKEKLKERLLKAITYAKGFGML
Chain of E6AP N-lobe (isolated) (Q05086 518-875): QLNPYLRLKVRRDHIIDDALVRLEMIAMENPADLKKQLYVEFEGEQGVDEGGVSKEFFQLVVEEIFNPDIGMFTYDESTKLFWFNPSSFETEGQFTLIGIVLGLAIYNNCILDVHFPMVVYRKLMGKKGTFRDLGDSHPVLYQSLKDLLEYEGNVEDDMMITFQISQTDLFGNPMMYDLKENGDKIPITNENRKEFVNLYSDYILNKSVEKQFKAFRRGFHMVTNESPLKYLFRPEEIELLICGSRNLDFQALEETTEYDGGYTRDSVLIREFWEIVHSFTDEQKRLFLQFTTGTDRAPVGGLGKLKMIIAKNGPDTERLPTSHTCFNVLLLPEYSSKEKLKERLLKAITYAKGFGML
Chain of E6AP HECT domain (residues 495-852), wild type (Q05086 518-875): as above

Row | Substance | pKa (Cys820) | Kd [1] [µM]
1 | E6AP (UBE3A) HECT domain C-lobe, wild type (Homo sapiens) | 8.7 ± 0.1 | 
2 | E6AP C-lobe (residues 741-852) (from UniProt Q05086-2 741-852) (domain or fragment) |  | 400
3 | E6AP (UBE3A) HECT domain C-lobe, Delta4 variant (Homo sapiens; del849-852) | 8.7 ± 0.1 | 
4 | E6AP HECT domain I564D/F583D (from UniProt Q05086-2 495-852) (domain or fragment) |  | 110
5 | E6AP N-lobe (isolated) (from UniProt Q05086-2 495-852) (domain or fragment) |  | 70
6 | E6AP HECT domain (residues 495-852), wild type (from UniProt Q05086-2 495-852) (domain or fragment) |  | 83
7 | E6AP HECT domain F665D (from UniProt Q05086-2 495-852) (domain or fragment) |  | 120
